Publication PMC4931317, “UtpA and UtpB chaperone nascent pre-ribosomal RNA and U3 snoRNA to initiate eukaryotic ribosome assembly” (Nature Communications, 2016)

T1: Utp5 (S. cerevisiae, UniProt Q04177 1-643)
T1 construct: Utp5, S. cerevisiae, subunit of UtpA; No tag is named for it in either strain; strains are in Supplementary Data 1; source: endogenous, S. cerevisiae YSK32, co-purified with Utp10-GFP; overexpressed (galactose promoter) in S. cerevisiae YSK122, co-purified with Utp15-mCherry
T1 sequence (looked up): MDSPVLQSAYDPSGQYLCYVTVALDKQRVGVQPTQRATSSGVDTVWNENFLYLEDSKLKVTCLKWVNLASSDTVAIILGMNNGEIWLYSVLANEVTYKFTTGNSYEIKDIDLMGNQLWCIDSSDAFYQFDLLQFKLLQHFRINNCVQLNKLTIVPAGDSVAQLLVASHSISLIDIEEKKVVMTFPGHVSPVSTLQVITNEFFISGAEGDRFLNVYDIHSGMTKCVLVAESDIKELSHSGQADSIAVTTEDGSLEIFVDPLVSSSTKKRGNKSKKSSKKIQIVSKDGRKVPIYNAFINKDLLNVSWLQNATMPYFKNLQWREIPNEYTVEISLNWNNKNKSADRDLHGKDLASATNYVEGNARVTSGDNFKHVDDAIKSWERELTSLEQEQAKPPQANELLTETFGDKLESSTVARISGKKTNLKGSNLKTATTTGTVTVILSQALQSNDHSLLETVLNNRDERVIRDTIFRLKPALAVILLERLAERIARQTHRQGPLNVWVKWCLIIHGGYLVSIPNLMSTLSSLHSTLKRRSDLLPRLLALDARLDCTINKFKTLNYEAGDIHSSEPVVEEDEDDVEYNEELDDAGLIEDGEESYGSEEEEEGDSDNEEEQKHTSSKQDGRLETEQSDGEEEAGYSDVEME

T2: Utp8 (S. cerevisiae, UniProt P53276 1-713)
T2 construct: Utp8, S. cerevisiae, subunit of UtpA; No tag is named for it in either strain; strains are in Supplementary Data 1; source: endogenous, S. cerevisiae YSK32, co-purified with Utp10-GFP; overexpressed (galactose promoter) in S. cerevisiae YSK122, co-purified with Utp15-mCherry
T2 sequence (looked up): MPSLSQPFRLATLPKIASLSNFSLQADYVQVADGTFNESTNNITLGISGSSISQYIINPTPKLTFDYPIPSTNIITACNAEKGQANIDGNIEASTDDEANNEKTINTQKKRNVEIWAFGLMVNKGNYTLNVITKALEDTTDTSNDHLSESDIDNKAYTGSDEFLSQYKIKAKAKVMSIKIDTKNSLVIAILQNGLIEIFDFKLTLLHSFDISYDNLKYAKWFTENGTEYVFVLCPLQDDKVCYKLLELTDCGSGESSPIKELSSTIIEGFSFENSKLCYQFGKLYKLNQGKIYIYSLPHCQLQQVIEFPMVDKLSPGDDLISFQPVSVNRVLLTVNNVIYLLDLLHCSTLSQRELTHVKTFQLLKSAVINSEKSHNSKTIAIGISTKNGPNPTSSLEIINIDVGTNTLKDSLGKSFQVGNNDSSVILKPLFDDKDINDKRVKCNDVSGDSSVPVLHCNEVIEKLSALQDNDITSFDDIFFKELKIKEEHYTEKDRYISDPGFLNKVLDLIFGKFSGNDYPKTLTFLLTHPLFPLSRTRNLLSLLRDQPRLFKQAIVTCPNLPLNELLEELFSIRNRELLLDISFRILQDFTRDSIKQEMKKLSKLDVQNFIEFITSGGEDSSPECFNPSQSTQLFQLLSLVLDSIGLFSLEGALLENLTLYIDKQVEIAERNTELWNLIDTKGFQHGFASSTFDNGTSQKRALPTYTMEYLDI

T3: Utp4 (S. cerevisiae, UniProt Q06679 1-776)
T3 construct: Utp4, S. cerevisiae, subunit of UtpA; No tag is named for it in either strain; strains are in Supplementary Data 1; source: endogenous, S. cerevisiae YSK32, co-purified with Utp10-GFP; overexpressed (galactose promoter) in S. cerevisiae YSK122, co-purified with Utp15-mCherry
T3 sequence (looked up): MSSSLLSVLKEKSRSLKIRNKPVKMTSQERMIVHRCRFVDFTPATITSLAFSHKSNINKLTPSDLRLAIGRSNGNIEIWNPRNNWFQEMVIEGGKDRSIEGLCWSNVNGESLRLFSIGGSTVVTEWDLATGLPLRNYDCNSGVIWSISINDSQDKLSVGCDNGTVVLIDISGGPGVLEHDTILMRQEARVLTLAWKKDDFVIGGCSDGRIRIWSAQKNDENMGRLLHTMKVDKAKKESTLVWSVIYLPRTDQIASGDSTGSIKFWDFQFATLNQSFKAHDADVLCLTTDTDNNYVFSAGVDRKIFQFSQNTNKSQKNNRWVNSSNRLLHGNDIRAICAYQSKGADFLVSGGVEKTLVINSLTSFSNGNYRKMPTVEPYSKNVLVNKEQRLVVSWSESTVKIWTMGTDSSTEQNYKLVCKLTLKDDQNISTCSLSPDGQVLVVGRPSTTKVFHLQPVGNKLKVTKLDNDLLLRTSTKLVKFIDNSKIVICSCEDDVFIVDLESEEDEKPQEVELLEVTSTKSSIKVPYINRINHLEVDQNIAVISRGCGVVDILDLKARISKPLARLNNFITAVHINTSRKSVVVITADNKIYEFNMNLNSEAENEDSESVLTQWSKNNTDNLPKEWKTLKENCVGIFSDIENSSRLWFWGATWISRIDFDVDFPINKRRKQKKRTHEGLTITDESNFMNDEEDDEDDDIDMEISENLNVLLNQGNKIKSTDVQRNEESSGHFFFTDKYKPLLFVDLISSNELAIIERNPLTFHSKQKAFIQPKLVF

B1: Utp17 (Nan1) (natural protein, S. cerevisiae, UniProt Q02931 1-896, looked up)
chain: MTQSLGIEQYKLSVVSGGKPALNNLSSVTGNKNIARLSQDQRNYIIPFNNQIKVYSVETRQCVKTLKFANNSLLSGIFLQEEENNESIVKILLGDITVPQQEDAHLITVFTNNGHVIVLNYKGKLVESPKHFKISLADEKLANVFHSEGNYRILTTFKDPSQKAHNSLQSYRLYALTFDDAKKQFEVAHQAEWHNVILSNISSNGKLLAHMCKDVSTKDHEHKSISVVSLFDDSVNLSFPLGSILSSQTQSLSYNTRYVSSMAIDNMGQQLAVGFASGVISIVSLADLQIRLLKWHIDSVLSLSFSHDGSYLLSGGWEKVMSLWQLETNSQQFLPRLNGIIIDCQVLGPQGNYYSLILQMTENNSNSDYQFLLLNASDLTSKLSINGPLPVFNSTIKHIQQPISAMNTKNSNSITSLNHSKKKQSRKLIKSRRQDFTTNVEINPINKNLYFPHISAVQIFDFYKNEQVNYQYLTSGVNNSMGKVRFELNLQDPIITDLKFTKDGQWMITYEIEYPPNDLLSSKDLTHILKFWTKNDNETNWNLKTKVINPHGISVPITKILPSPRSVNNSQGCLTADNNGGLKFWSFDSHESNWCLKKISLPNFNHFSNSVSLAWSQDGSLIFHGFDDKLQILDFDTFKKFESLENTKTVSEFTLDSEIQTVKLINDTNLIVATRTTLNAINLLRGQVINSFDLYPFVNGVYKNGHMDRLITCDERTGNIALVINQQLTDLDGVPTINYKSRIIIFDSDLSTKLGNFTHHEYISWIGWNYDTDFIFLDIESTLGVVGTTVNTQLSDEVNNEGILDGLVSNTITTSASNSDIFAEQLHKLSSRGKKSDTRDKNTNDNDEDEEDIALEFINGEKKDKLVNMNSFTSMFDNIQNVQMDTFFDRVMKVLT
notes: Utp17 (Nan1), S. cerevisiae, subunit of UtpA (101 kDa); source: endogenous, S. cerevisiae YSK32, co-purified with Utp10-GFP
B2: Utp15-3myc-TEV-mCherry-3FLAG (overexpressed) (natural protein, S. cerevisiae, UniProt Q04305 1-513, looked up)
chain: MSTARPRIITSKAPLLPQQTTPEQRYWRQYTSAQLVKEHNSVTHISFNPQHPHDFAVTSSTRVQIFSSRTRQVIKTFSRFKDVVYSASFRSDGKLLCAGDATGLVSVYDSYNPRTILLSINASTHPTHVTKFHTQDNKILATASDDRVTRLWDISNAYEPQLELTGATDYVRTLSFIPAAPHLVATGSYDGLIRLYDTRSSGSTPIYSLNHDQPVENVIAVSPTQIVSCGGNNFKVWDLTSNKKLYERGNFNKAVTCLDYVENFDSPMQSALIASSLDGHVKVFDPLDNFQVKFGWKFSGPVLSCAVSPSTAQGNRHLVAGLSSGLLAIRTKKKEKRSSDKENAPASFNKNAKSNNFQRMMRGSEYQGDQEHIIHNDKVRSQRRMRAFERNINQFKWSEALDNAFVPGMAKELTLTVLQELRKRGKVRVALYGRDESTLEPLLNWCLKGIEDVRSASIVADWVAVVLELYGNTLESSPVLQELMIDLKTKVRHEIHKSKEAQRIEGMLQLLTS
notes: Utp15, S. cerevisiae, subunit of UtpA; Captured by mCherry in a4; the complex is eluted by TEV cleavage, so mCherry-3FLAG is off in the SEC step (a5); also called Utp15-TEV-mCherry; Utp15-mCherry; source: S. cerevisiae YSK122, overexpressed (galactose promoter); captured from lysate on anti-mCherry nanobody sepharose, TEV elution, SEC; not shown: 3myc, C-terminal, kept; mCherry, C-terminal, kept; …
B3: Utp9 (natural protein, S. cerevisiae, UniProt P38882 1-575, looked up)
chain: MGSSLDLVASFSHDSTRFAFQASVAQKNNVDIYPLNETKDYVVNSSLVSHIDYETNDMKVSDVIFFGWCSDLIDTQSSNIKRKLDEDEGTGESSEQRCENFFVNGFPDGRIVVYSSNGKDIVNIIKNKKEILGADTDESDIWILDSDKVVKKLQYNNSKPLKTFTLVDGKDDEIVHFQILHQNGTLLVCIITKQMVYIVDPSKRRPSTKYSFEISDAVACEFSSDGKYLLIANNEELIAYDLKEDSKLIQSWPVQVKTLKTLDDLIMALTTDGKINNYKIGEADKVCSIVVNEDLEIIDFTPINSKQQVLISWLNVNEPNFESISLKEIETQGYITINKNEKNNADEADQKKLEEKEEEAQPEVQHEKKETETKINKKVSKSDQVEIANILSSHLEANSTEILDDLMSGSWTEPEIKKFILTKINTVDHLSKIFLTISKSITQNPWNEENLLPLWLKWLLTLKSGELNSIKDKHTKKNCKHLKSALRSSEEILPVLLGIQGRLEMLRRQAKLREDLAQLSMQEGEDDEIEVIEHSNVISNPLQDQASPVEKLEPDSIVYANGESDEFVDASEYKD
notes: Utp9, S. cerevisiae, subunit of UtpA; No tag is named for it in either strain; strains are in Supplementary Data 1; source: endogenous, S. cerevisiae YSK32, co-purified with Utp10-GFP; overexpressed (galactose promoter) in S. cerevisiae YSK122, co-purified with Utp15-mCherry

Key:
[1] = molecular target: T4, Utp10-3C-GFP (S. cerevisiae, UniProt P42945 1-1769); assay: pull-down; UtpA held via Utp10-GFP on anti-GFP nanobody sepharose (purified at 200 mM NaCl), then incubated 7 h at 4 °C in buffer with 400 mM NaCl; 3C elution; Coomassie-stained SDS-PAGE; conditions: partners not purified
T4 construct: Utp10, S. cerevisiae, subunit of UtpA (200 kDa); GFP is joined through a 3C protease site; it holds the protein on the beads in a1-a3 and is cleaved off by 3C on elution, so it is absent in the SEC step and in the DSS cross-linking (a6); also called Utp10-GFP; Utp10-sbp-H14-3C-GFP; source: S. cerevisiae YSK32, C-terminal tag integrated in the genome, endogenous level; captured from lysate on …

[2] = molecular target: T1, Utp5; assay: pull-down; Utp4, Utp5, Utp8, Utp9 and Utp15-3myc-TEV-mCherry-3FLAG overexpressed in yeast YSK122; lysate on anti-mCherry nanobody sepharose; 50 mM HEPES-NaOH pH 7.6, 100 mM NaCl, 4 °C; TEV elution; conditions: partners not purified
[3] = molecular target: T2, Utp8; assay: as above; conditions: partners not purified
[4] = molecular target: B3; assay: as above; conditions: partners not purified
[5] = molecular target: T3, Utp4; assay: cross-linking; DSS (0.2 mM, H12/D12) cross-linking of SEC-purified endogenous UtpA, 25 °C, 30 min, 50 mM HEPES-NaOH pH 7.6, 200 mM NaCl, 1 mM EDTA; cross-linked peptides found by mass spectrometry (pLink); conditions: both partners purified

T4 sequence (P42945 whole entry): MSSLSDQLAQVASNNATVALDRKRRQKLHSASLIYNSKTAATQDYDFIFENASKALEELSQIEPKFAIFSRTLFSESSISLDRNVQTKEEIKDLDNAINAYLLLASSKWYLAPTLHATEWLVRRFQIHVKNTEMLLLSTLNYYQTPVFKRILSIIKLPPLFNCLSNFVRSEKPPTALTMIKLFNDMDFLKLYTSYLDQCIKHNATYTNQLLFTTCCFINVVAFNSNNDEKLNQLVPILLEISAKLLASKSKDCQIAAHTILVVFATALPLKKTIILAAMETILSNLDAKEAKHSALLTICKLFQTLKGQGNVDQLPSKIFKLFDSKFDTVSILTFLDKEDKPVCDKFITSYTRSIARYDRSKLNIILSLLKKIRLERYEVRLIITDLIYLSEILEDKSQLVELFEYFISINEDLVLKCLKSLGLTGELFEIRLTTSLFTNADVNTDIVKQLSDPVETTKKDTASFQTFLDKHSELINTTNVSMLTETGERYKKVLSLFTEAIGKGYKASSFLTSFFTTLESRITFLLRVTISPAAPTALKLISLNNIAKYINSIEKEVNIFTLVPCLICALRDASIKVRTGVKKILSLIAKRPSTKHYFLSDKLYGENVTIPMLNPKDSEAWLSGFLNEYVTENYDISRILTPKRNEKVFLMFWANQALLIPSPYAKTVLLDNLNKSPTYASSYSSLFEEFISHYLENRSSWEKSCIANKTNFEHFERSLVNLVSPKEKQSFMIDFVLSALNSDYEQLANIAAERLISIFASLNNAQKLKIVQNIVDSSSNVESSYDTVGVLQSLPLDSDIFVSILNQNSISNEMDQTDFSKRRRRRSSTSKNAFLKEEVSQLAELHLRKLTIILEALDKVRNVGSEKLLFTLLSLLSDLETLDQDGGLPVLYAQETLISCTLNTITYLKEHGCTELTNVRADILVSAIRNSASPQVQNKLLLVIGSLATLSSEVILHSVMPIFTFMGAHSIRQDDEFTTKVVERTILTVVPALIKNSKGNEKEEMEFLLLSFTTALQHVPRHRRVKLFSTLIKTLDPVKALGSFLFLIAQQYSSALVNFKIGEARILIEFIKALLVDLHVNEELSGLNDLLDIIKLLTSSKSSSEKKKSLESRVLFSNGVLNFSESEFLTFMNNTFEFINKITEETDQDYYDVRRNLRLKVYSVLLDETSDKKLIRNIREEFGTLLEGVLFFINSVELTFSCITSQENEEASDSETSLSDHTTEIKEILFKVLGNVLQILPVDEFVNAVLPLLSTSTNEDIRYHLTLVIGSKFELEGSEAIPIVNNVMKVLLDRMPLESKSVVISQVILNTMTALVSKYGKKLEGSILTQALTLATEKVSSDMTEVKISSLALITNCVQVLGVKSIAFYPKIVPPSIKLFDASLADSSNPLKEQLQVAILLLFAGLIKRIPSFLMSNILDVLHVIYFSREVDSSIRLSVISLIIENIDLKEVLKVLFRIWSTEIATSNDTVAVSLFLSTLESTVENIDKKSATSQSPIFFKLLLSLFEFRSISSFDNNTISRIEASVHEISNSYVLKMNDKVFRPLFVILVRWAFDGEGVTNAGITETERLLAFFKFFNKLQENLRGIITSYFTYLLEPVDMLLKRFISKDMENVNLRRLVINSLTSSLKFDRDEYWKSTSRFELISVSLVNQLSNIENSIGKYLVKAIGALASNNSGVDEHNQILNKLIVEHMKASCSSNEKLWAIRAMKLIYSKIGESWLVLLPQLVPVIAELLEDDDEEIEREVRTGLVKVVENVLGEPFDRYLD

Binder: B1
- binding result [1]: binds

Binder: B2
- binding result [2]: binds
- binding result [3]: binds
- binding result [4]: binds

Binder: B3
- binding result [5]: binds
